For this test, the target named is T1, recombinant human CD123-Fc (human, UniProt P26951 19-305).
T1 construct: not shown: Fc part of CD123-Fc
T1 sequence: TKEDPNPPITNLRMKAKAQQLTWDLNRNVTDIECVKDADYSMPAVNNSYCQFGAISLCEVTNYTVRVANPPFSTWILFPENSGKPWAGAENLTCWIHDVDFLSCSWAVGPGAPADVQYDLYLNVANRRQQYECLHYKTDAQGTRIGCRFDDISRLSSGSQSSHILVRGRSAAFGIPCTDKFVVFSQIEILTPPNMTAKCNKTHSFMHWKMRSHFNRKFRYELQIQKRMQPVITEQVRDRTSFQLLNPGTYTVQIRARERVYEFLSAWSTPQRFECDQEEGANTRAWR
The test can be described thus: phage ELISA, A450 target/A450 IgG1-Fc. Summed up:
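Individual phagemid colonies picked from panning output were rescued in 96-well format using VCSM13 helper phage. Plates received 1.3 microg/ml goat anti-human IgG1-Fc antibody, followed by 5 nM recombinant human target or IgG1-Fc, and then 50 microl of phage diluted 5× in ELISA blocking buffer. An HRP-conjugated anti-M13 antibody detected binding at 450 nm. For each clone, the ELISA ratio is the absorbance with target divided by that with IgG1-Fc, averaged over every screened well containing the clone.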
(In general: In an ELISA, binding on a coated surface is turned into a signal by an enzyme label.)

B1: SEQ ID NO 677 (designed binder)
chain: MGSWGEFWARLEAIWIRLDALGGSEAELAAFEKEIAAFESELQAYKGKGNPEVEWLREEAADIRRSLQAYRHN
B1: the ELISA_avg came out at 15 ratio.

B2: SEQ ID NO 697 (designed binder)
chain: MGSWVEFWHRLDAIKARLNALGGSEAELAAFEKEIAAFESELQAYKGKGNPEVEDLRWYAADFRLILQAYRHN
As to B2, the ELISA_avg stood at 3.5 ratio.

B3: SEQ ID NO 691 (designed binder)
chain: MGSWYEFEDRLDAIQWRLWALGGSEAELAAFEKEIAAFESELQAYKGKGNPEVEFLRESAANIRQHLQAYRHN
On to B3, for which the ELISA_avg was 6.3 ratio.

B4: SEQ ID NO 692 (designed binder)
chain: MGSWSEFEYRLFAIENRLDALGGSEAELAAFEKEIAAFESELQAYKGKGNPEVEFLREEAAMIRQLLQAYRHN
Consider B4, for which the ELISA_avg is 3.2 ratio.

B5: SEQ ID NO 694 (designed binder)
chain: MGSWWEFLDRLDAIEMRLFALGGSEAELAAFEKEIAAFESELQAYKGKGNPEVEYLREEAALIRNMLQAYRHN
As to B5, the ELISA_avg came to 9 ratio.

B6: SEQ ID NO 739 (designed binder)
chain: MGSWYEFYQRLEAIEDRLFALGGSEAELAAFEKEIAAFESELQAYKGKGNPEVEWLRDEAAEIRVVLQAYRHN
Consider B6, for which the ELISA_avg was found to be 3 ratio.

B7: SEQ ID NO 717 (designed binder)
chain: MGSWYEFEWRLMAIEDRLWALGGSEAELAAFEKEIAAFESELQAYKGKGNPEVEYLRHEAAEIRDVLQAYRHN
Consider B7, for which the ELISA_avg was determined as 3.4 ratio.

B8: SEQ ID NO 735 (designed binder)
chain: MGSWVEFVDRLEAIEDRLFALGGSEAELAAFEKEIAAFESELQAYKGKGNPEVEFLRDQAAYIRFMLQAYRHN
With B8, the ELISA_avg was determined as 4.9 ratio.

B9: SEQ ID NO 716 (designed binder)
chain: MGSWYEFDSRLMAIEDRLWALGGSEAELAAFEKEIAAFESELQAYKGKGNPEVEYLRQEAAEIRMILQAYRHN
Regarding B9, the ELISA_avg amounted to 3.2 ratio.

B10: SEQ ID NO 718 (designed binder)
chain: MGSWYEFYNRLDAIEDRLWALGGSEAELAAFEKEIAAFESELQAYKGKGNPEVEYLRQEAADIRGQLQAYRHN
Take B10: the ELISA_avg amounted to 11.3 ratio.

B11: SEQ ID NO 707 (designed binder)
chain: MGSWYEFEERLYAIEDRLYALGGSEAELAAFEKEIAAFESELQAYKGKGNPEVEFLRQEAADIRLMLQAYRHN
For the molecule B11, the ELISA_avg is 11.5 ratio.

B12: SEQ ID NO 711 (designed binder)
chain: MGSWEEFEDRLWAIEDRLWALGGSEAELAAFEKEIAAFESELQAYKGKGNPEVEILRYDAAYIREILQAYRHN
With B12, the ELISA_avg amounted to 4.1 ratio.

B13: SEQ ID NO 713 (designed binder)
chain: MGSWYEFWDRLEAIEDRLWALGGSEAELAAFEKEIAAFESELQAYKGKGNPEVEFLRYSAAEIRYQLQAYRHN
Take B13: the ELISA_avg stood at 4.2 ratio.

B14: SEQ ID NO 719 (designed binder)
chain: MGSWWEFHDRLEAIEDRLWALGGSEAELAAFEKEIAAFESELQAYKGKGNPEVEYLRIEAADIRRQLQAYRHN
Consider B14, for which the ELISA_avg worked out at 6.4 ratio.

B15: SEQ ID NO 721 (designed binder)
chain: MGSWYEFEERLWAIEERLYALGGSEAELAAFEKEIAAFESELQAYKGKGNPEVEYLRYEAAWIRDFLQAYRHN
Turning to B15, the ELISA_avg came out at 5.4 ratio.

B16: SEQ ID NO 724 (designed binder)
chain: MGSWYEFENRLGAIGDRLWALGGSEAELAAFEKEIAAFESELQAYKGKGNPEVEWLRDEAAYIRAVLQAYRHN
Turning to B16, the ELISA_avg turned out to be 4.8 ratio.

B17: SEQ ID NO 706 (designed binder)
chain: MGSWYEFADRLWAIEDRLWALGGSEAELAAFEKEIAAFESELQAYKGKGNPEVEFLRYYAADIRWVLQAYRHN
With B17, the ELISA_avg stood at 4 ratio.

B18: SEQ ID NO 696 (designed binder)
chain: MGSWWEFESRLDAIFMRLTALGGSEAELAAFEKEIAAFESELQAYKGKGNPEVEDLREDAAFIREFLQAYRHN
Regarding B18, the ELISA_avg worked out at 3.7 ratio.

B19: SEQ ID NO 733 (designed binder)
chain: MGSWFEFWDRLDAIEDRLYALGGSEAELAAFEKEIAAFESELQAYKGKGNPEVEELRDEAAWIRGTLQAYRHN
For B19, the ELISA_avg turned out to be 4.9 ratio.

B20: SEQ ID NO 714 (designed binder)
chain: MGSWVEFESRLAAIEHRLWALGGSEAELAAFEKEIAAFESELQAYKGKGNPEVEELREYAAEIRDWLQAYRHN
Regarding B20, the ELISA_avg was 3.7 ratio.

B21: SEQ ID NO 705 (designed binder)
chain: MGSWVEFWDRLWAIEDRLWALGGSEAELAAFEKEIAAFESELQAYKGKGNPEVEHLRHYAADIRVWLQAYRHN
Turning to B21, the ELISA_avg was 4.5 ratio.

B22: SEQ ID NO 729 (designed binder)
chain: MGSWFEFEWRLEAIFDRLYALGGSEAELAAFEKEIAAFESELQAYKGKGNPEVEVLRAEAAEIRLRLQAYRHN
As to B22, the ELISA_avg came out at 6.9 ratio.

B23: SEQ ID NO 723 (designed binder)
chain: MGSWYEFEYRLEAIEDRLWALGGSEAELAAFEKEIAAFESELQAYKGKGNPEVEYLREEAAWIRVWLQAYRHN
In the case of B23, the ELISA_avg came to 6.2 ratio.

B24: SEQ ID NO 715 (designed binder)
chain: MGSWWEFEHRLFAIEDRLWALGGSEAELAAFEKEIAAFESELQAYKGKGNPEVEFLRDYAAEIRDYLQAYRHN
B24: the ELISA_avg amounted to 7.6 ratio.

B25: SEQ ID NO 725 (designed binder)
chain: MGSWYEFEHRLDAIYDRLWALGGSEAELAAFEKEIAAFESELQAYKGKGNPEVEWLREEAAWIRLWLQAYRHN
For B25, the ELISA_avg turned out to be 6.3 ratio.

B26: SEQ ID NO 708 (designed binder)
chain: MGSWTEFEWRLYAIEDRLMALGGSEAELAAFEKEIAAFESELQAYKGKGNPEVEFLRDEAADIRQYLQAYRHN
Take B26: the ELISA_avg was determined as 4.2 ratio.

B27: SEQ ID NO 728 (designed binder)
chain: MGSWYEFEERLEAIEDRLWALGGSEAELAAFEKEIAAFESELQAYKGKGNPEVEWLREQAAFIRTMLQAYRHN
Regarding B27, the ELISA_avg was determined as 6 ratio.

B28: SEQ ID NO 734 (designed binder)
chain: MGSWEEFTDRLWAIEDRLYALGGSEAELAAFEKEIAAFESELQAYKGKGNPEVEWLRDEAAFIRKSLQAYRHN
Consider B28, for which the ELISA_avg was found to be 8.9 ratio.

B29: SEQ ID NO 722 (designed binder)
chain: MGSWYEFENRLEAIEERLWALGGSEAELAAFEKEIAAFESELQAYKGKGNPEVEMLREEAAFIRDWLQAYRHN
For the molecule B29, the ELISA_avg stood at 6.1 ratio.

B30: SEQ ID NO 732 (designed binder)
chain: MGSWIEFWDRLEAIEDRLWALGGSEAELAAFEKEIAAFESELQAYKGKGNPEVEELRDEAAWIRDSLQAYRHN
In the case of B30, the ELISA_avg was 4.5 ratio.

B31: SEQ ID NO 695 (designed binder)
chain: MGSWWEFEDRLDAIEYRLFALGGSEAELAAFEKEIAAFESELQAYKGKGNPEVEFLREEAAFIRIFLQAYRHN
Take B31: the ELISA_avg was 4.9 ratio.

B32: SEQ ID NO 709 (designed binder)
chain: MGSWIEFESRLWAIEDRLLALGGSEAELAAFEKEIAAFESELQAYKGKGNPEVEFLRLEAADIREDLQAYRHN
Take B32: the ELISA_avg stood at 8.7 ratio.

B33: SEQ ID NO 710 (designed binder)
chain: MGSWFEFEDRLDAIWDRLWALGGSEAELAAFEKEIAAFESELQAYKGKGNPEVEFLRMDAAMIRYILQAYRHN
For B33, the ELISA_avg was 5.1 ratio.

B34: SEQ ID NO 726 (designed binder)
chain: MGSWYEFEWRLDAIYDRLGALGGSEAELAAFEKEIAAFESELQAYKGKGNPEVEWLREDAAEIRALLQAYRHN
For the molecule B34, the ELISA_avg turned out to be 6 ratio.

B35: SEQ ID NO 727 (designed binder)
chain: MGSWVEFENRLEAIENRLWALGGSEAELAAFEKEIAAFESELQAYKGKGNPEVEWLREDAAQIRMMLQAYRHN
On to B35, for which the ELISA_avg is 6.2 ratio.

B36: SEQ ID NO 720 (designed binder)
chain: MGSWYEFWDRLEAIEERLWALGGSEAELAAFEKEIAAFESELQAYKGKGNPEVEYLRLEAADIRRILQAYRHN
On to B36, for which the ELISA_avg worked out at 4.6 ratio.

B37: SEQ ID NO 738 (designed binder)
chain: MGSWFEFEIRLEAIEDRLFALGGSEAELAAFEKEIAAFESELQAYKGKGNPEVEFLRDEAAEIRQVLQAYRHN
Turning to B37, the ELISA_avg amounted to 3 ratio.

B38: SEQ ID NO 740 (designed binder)
chain: MGSWIEFEDRLEAIEDRLFALGGSEAELAAFEKEIAAFESELQAYKGKGNPEVEWLRQEAAEIRLMLQAYRHN
Turning to B38, the ELISA_avg worked out at 21.8 ratio.

B39: SEQ ID NO 737 (designed binder)
chain: MGSWWEFEMRLEAIEDRLFALGGSEAELAAFEKEIAAFESELQAYKGKGNPEVESLRWEAAFIRDILQAYRHN
As for B39, the ELISA_avg was determined as 4 ratio.

These data come from patent US20230125550A1 (ARCELLX, published 2023).
